Experimental data from US20220411491A1 (Hoffmann-La Roche, published 2022).

B1: P1AE5715 (antibody, V domains shown)
VH: ELQLLESGGGLVQPGGSLRLSCAASGFTFSKYAMAWVRQAPGKGLEWVASISTGGVNTYYRDSVKARFTISRDNAKNTLYLQMNSLRAEDTAVYYCATHTGDYFDYWGQGTMVTVSS
VL: DIVMTQSPDSLAVSLGERATINCKSSQSVSISGINLMNWYQQKPGQQPKLLIYHASILASGVPDRFSGSGSGTDFTLTISSLQAEDVAVYYCQQTRESPLTFGQGTRLEIK
B2: P1AE5725 (antibody, V domains shown)
VH: EVQLLESGGGLVQPGGSLRLSCAASGFTFSKYAMAWVRQAPGKGLEWVASISTGGVNTYYADSVKGRFTISRDNSKNTLYLQMNSLRAEDTAVYYCATHTGDYFDYWGQGTMVTVSS
VL: DIQMTQSPSSLSASVGDRVTITCRASQSVSISGINLMNWYQQKPGQQPKLLIYHASILASGVPSRFSGSGSGTDFTLTISSLQPEDFATYYCQQTRESPLTFGQGTRLEIK
B3: P1AE5731 (antibody, V domains shown)
VH: ELQLLESGGGLVQPGGSLRLSCAASGFTFSKYAMAWVRQAPGKGLEWVASISTGGVNTYYADSVKGRFTISRDNAKNTLYLQMNSLRAEDTAVYYCATHTGDYFDYWGQGTMVTVSS
VL: DIQMTQSPSSLSASVGDRVTITCRASQSVSISGINLMNWYQQKPGQQPKLLIYHASILASGVPSRFSGSGSGTDFTLTISSLQPEDFATYYCQQTRESPLTFGQGTRLEIK
B4: P1AE5709 (antibody, V domains shown)
VH: EVQLLESGGGLVQPGGSLRLSCAASGFTFSKYAMAWVRQAPGKGLEWVASISTGGVNTYYRDSVKARFTISRDNSKNTLYLQMNSLRAEDTAVYYCATHTGDYFDYWGQGTMVTVSS
VL: EIVLTQSPGTLSLSPGERATLSCRASQSVSISGINLMNWYQQKPGQQPRLLIYHASILASGIPDRFSGSGSGTDFTLTISRLEPEDFAVYYCQQTRESPLTFGQGTRLEIK
B5: P1AE5724 (antibody, V domains shown)
VH: EVQLLESGGGLVQPGGSLRLSCAASGFTFSKYAMAWVRQAPGKGLEWVASISTGGVNTYYADSVKGRFTISRDNSKNTLYLQMNSLRAEDTAVYYCATHTGDYFDYWGQGTMVTVSS
VL: DIQMTQSPSSLSASVGDRVTITCRASQSVSISGINLMNWYQQKPGKQPKLLIYHASILASGVPSRFSGSGSGTDFTLTISSLQPEDFATYYCQQTRESPLTFGQGTRLEIK
B6: P1AE5718 (antibody, V domains shown)
VH: ELQLLESGGGLVQPGGSLRLSCAASGFTFSKYAMAWVRQAPGKGLEWVASISTGGVNTYYRDSVKARFTISRDNAKNTLYLQMNSLRAEDTAVYYCATHTGDYFDYWGQGTMVTVSS
VL: DIQMTQSPSSLSASVGDRVTITCRASQSVSISGINLMNWYQQKPGKQPKLLIYHASILASGVPSRFSGSGSGTDFTLTISSLQPEDFATYYCQQTRESPLTFGQGTRLEIK
B7: P1AE5712 (antibody, V domains shown)
VH: EVQLLESGGGLVQPGGSLRLSCAASGFTFSKYAMAWVRQAPGKGLEWVASISTGGVNTYYRDSVKARFTISRDNSKNTLYLQMNSLRAEDTAVYYCATHTGDYFDYWGQGTMVTVSS
VL: DIQMTQSPSSLSASVGDRVTITCRASQSVSISGINLMNWYQQKPGKQPKLLIYHASILASGVPSRFSGSGSGTDFTLTISSLQPEDFATYYCQQTRESPLTFGQGTRLEIK
B8: P1AE5730 (antibody, V domains shown)
VH: ELQLLESGGGLVQPGGSLRLSCAASGFTFSKYAMAWVRQAPGKGLEWVASISTGGVNTYYADSVKGRFTISRDNAKNTLYLQMNSLRAEDTAVYYCATHTGDYFDYWGQGTMVTVSS
VL: DIQMTQSPSSLSASVGDRVTITCRASQSVSISGINLMNWYQQKPGKQPKLLIYHASILASGVPSRFSGSGSGTDFTLTISSLQPEDFATYYCQQTRESPLTFGQGTRLEIK
B9: P1AE5719 (antibody, V domains shown)
VH: ELQLLESGGGLVQPGGSLRLSCAASGFTFSKYAMAWVRQAPGKGLEWVASISTGGVNTYYRDSVKARFTISRDNAKNTLYLQMNSLRAEDTAVYYCATHTGDYFDYWGQGTMVTVSS
VL: DIQMTQSPSSLSASVGDRVTITCRASQSVSISGINLMNWYQQKPGQQPKLLIYHASILASGVPSRFSGSGSGTDFTLTISSLQPEDFATYYCQQTRESPLTFGQGTRLEIK
B10: P1AE5721 (antibody, V domains shown)
VH: EVQLLESGGGLVQPGGSLRLSCAASGFTFSKYAMAWVRQAPGKGLEWVASISTGGVNTYYADSVKGRFTISRDNSKNTLYLQMNSLRAEDTAVYYCATHTGDYFDYWGQGTMVTVSS
VL: DIVMTQSPDSLAVSLGERATINCKSSQSVSISGINLMNWYQQKPGQQPKLLIYHASILASGVPDRFSGSGSGTDFTLTISSLQAEDVAVYYCQQTRESPLTFGQGTRLEIK
B11: P1AE5729 (antibody, V domains shown)
VH: ELQLLESGGGLVQPGGSLRLSCAASGFTFSKYAMAWVRQAPGKGLEWVASISTGGVNTYYADSVKGRFTISRDNAKNTLYLQMNSLRAEDTAVYYCATHTGDYFDYWGQGTMVTVSS
VL: EIVLTQSPGTLSLSPGERATLSCRASQSVSISGINLMNWYQQKPGQQPKLLIYHASILASGIPDRFSGSGSGTDFTLTISRLEPEDFAVYYCQQTRESPLTFGQGTRLEIK
B12: P1AE5727 (antibody, V domains shown)
VH: ELQLLESGGGLVQPGGSLRLSCAASGFTFSKYAMAWVRQAPGKGLEWVASISTGGVNTYYADSVKGRFTISRDNAKNTLYLQMNSLRAEDTAVYYCATHTGDYFDYWGQGTMVTVSS
VL: DIVMTQSPDSLAVSLGERATINCKSSQSVSISGINLMNWYQQKPGQQPKLLIYHASILASGVPDRFSGSGSGTDFTLTISSLQAEDVAVYYCQQTRESPLTFGQGTRLEIK
B13: P1AE5720 (antibody, V domains shown)
VH: EVQLLESGGGLVQPGGSLRLSCAASGFTFSKYAMAWVRQAPGKGLEWVASISTGGVNTYYADSVKGRFTISRDNSKNTLYLQMNSLRAEDTAVYYCATHTGDYFDYWGQGTMVTVSS
VL: DIVMTQSPDSLAVSLGERATINCRASQSVSISGINLMNWYQQKPGQQPKLLIYHASILASGVPDRFSGSGSGTDFTLTISSLQAEDVAVYYCQQTRESPLTFGQGTRLEIK
B14: P1AE5717 (antibody, V domains shown)
VH: ELQLLESGGGLVQPGGSLRLSCAASGFTFSKYAMAWVRQAPGKGLEWVASISTGGVNTYYRDSVKARFTISRDNAKNTLYLQMNSLRAEDTAVYYCATHTGDYFDYWGQGTMVTVSS
VL: EIVLTQSPGTLSLSPGERATLSCRASQSVSISGINLMNWYQQKPGQQPKLLIYHASILASGIPDRFSGSGSGTDFTLTISRLEPEDFAVYYCQQTRESPLTFGQGTRLEIK
B15: P1AE5726 (antibody, V domains shown)
VH: ELQLLESGGGLVQPGGSLRLSCAASGFTFSKYAMAWVRQAPGKGLEWVASISTGGVNTYYADSVKGRFTISRDNAKNTLYLQMNSLRAEDTAVYYCATHTGDYFDYWGQGTMVTVSS
VL: DIVMTQSPDSLAVSLGERATINCRASQSVSISGINLMNWYQQKPGQQPKLLIYHASILASGVPDRFSGSGSGTDFTLTISSLQAEDVAVYYCQQTRESPLTFGQGTRLEIK
B16: P1AE5728 (antibody, V domains shown)
VH: ELQLLESGGGLVQPGGSLRLSCAASGFTFSKYAMAWVRQAPGKGLEWVASISTGGVNTYYADSVKGRFTISRDNAKNTLYLQMNSLRAEDTAVYYCATHTGDYFDYWGQGTMVTVSS
VL: EIVLTQSPGTLSLSPGERATLSCRASQSVSISGINLMNWYQQKPGQQPRLLIYHASILASGIPDRFSGSGSGTDFTLTISRLEPEDFAVYYCQQTRESPLTFGQGTRLEIK
B17: P1AE5723 (antibody, V domains shown)
VH: EVQLLESGGGLVQPGGSLRLSCAASGFTFSKYAMAWVRQAPGKGLEWVASISTGGVNTYYADSVKGRFTISRDNSKNTLYLQMNSLRAEDTAVYYCATHTGDYFDYWGQGTMVTVSS
VL: EIVLTQSPGTLSLSPGERATLSCRASQSVSISGINLMNWYQQKPGQQPKLLIYHASILASGIPDRFSGSGSGTDFTLTISRLEPEDFAVYYCQQTRESPLTFGQGTRLEIK
B18: P1AE5710 (antibody, V domains shown)
VH: EVQLLESGGGLVQPGGSLRLSCAASGFTFSKYAMAWVRQAPGKGLEWVASISTGGVNTYYRDSVKARFTISRDNSKNTLYLQMNSLRAEDTAVYYCATHTGDYFDYWGQGTMVTVSS
VL: EIVLTQSPGTLSLSPGERATLSCRASQSVSISGINLMNWYQQKPGQQPKLLIYHASILASGIPDRFSGSGSGTDFTLTISRLEPEDFAVYYCQQTRESPLTFGQGTRLEIK
B19: P1AE5722 (antibody, V domains shown)
VH: EVQLLESGGGLVQPGGSLRLSCAASGFTFSKYAMAWVRQAPGKGLEWVASISTGGVNTYYADSVKGRFTISRDNSKNTLYLQMNSLRAEDTAVYYCATHTGDYFDYWGQGTMVTVSS
VL: EIVLTQSPGTLSLSPGERATLSCRASQSVSISGINLMNWYQQKPGQQPRLLIYHASILASGIPDRFSGSGSGTDFTLTISRLEPEDFAVYYCQQTRESPLTFGQGTRLEIK
B20: P1AE5716 (antibody, V domains shown)
VH: ELQLLESGGGLVQPGGSLRLSCAASGFTFSKYAMAWVRQAPGKGLEWVASISTGGVNTYYRDSVKARFTISRDNAKNTLYLQMNSLRAEDTAVYYCATHTGDYFDYWGQGTMVTVSS
VL: EIVLTQSPGTLSLSPGERATLSCRASQSVSISGINLMNWYQQKPGQQPRLLIYHASILASGIPDRFSGSGSGTDFTLTISRLEPEDFAVYYCQQTRESPLTFGQGTRLEIK

The binders below were run against human GPRC5D (human, UniProt Q9NZD1 1-345) (assay: cell-based or functional assay).
Sequence of human GPRC5D (Q9NZD1 whole entry): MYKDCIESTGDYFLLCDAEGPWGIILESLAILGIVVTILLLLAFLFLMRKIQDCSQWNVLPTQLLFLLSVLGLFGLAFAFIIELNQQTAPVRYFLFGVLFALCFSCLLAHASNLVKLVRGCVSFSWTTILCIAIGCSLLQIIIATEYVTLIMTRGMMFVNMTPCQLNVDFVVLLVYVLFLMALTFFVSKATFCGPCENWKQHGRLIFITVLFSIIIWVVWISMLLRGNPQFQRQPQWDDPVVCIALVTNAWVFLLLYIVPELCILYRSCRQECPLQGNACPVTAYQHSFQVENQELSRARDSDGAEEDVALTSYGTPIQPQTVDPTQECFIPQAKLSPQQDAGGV

In order of falling “CAR-J2 EC50” value:
1. B6  105 ng/mL
2. B14  79.9 ng/mL
3. B11  61.3 ng/mL
4. B4  59.4 ng/mL
5. B15  37.8 ng/mL
6. B10  25 ng/mL
7. B7  16.1 ng/mL
8. B2  10.9 ng/mL
9. B12  6.3 ng/mL
10. B13  6.3 ng/mL
11. B16  5.6 ng/mL
12. B19  4.6 ng/mL
13. B17  3.7 ng/mL
14. B1  3.6 ng/mL
15. B5  3.6 ng/mL
16. B8  3.5 ng/mL
17. B18  3.5 ng/mL
18. B20  3.3 ng/mL
19. B9  2.8 ng/mL
20. B3  2.3 ng/mL
